Measurements published in publication PMC7980463 (Proceedings of the National Academy of Sciences of the …, 2021).

T1: MsGyrB47 (D348A) (M. smegmatis, UniProt A0QNE0 1-427, D348A)
T1 sequence: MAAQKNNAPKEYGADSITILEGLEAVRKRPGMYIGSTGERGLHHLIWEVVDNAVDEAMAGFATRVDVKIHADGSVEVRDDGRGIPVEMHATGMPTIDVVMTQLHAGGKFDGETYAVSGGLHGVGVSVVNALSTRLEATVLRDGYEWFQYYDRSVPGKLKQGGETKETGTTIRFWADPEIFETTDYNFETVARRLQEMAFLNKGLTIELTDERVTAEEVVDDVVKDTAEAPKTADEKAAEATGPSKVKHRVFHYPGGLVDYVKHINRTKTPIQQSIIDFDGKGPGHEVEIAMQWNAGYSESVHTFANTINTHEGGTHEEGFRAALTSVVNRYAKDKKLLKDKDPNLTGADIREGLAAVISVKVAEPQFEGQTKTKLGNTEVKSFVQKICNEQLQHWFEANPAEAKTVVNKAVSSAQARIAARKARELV

B1: Mycobacterium smegmatis MfpA (natural protein, M. smegmatis)
chain: MRIGANGDETVWADEEFAGRDFRDEDLSRIRTERVVFTECDFSGVDLSESEHHGSAFRNCTFRRSTIWHSTFTNCSLLGSVFTECRIRPVTFVECDFTLAVLGGCDLRAVDLSDCRLREVSLVGADLRKAVLRRADLTGSRVQDARLEEADLRGTRVDPTFWTTAKVRGAKIDIEQALAYAAAHGLAVHGG
B2: MsGyrB47, the ATPase (N-terminal) domain of M. smegmatis GyrB (domain or fragment)
chain: MAAQKNNAPKEYGADSITILEGLEAVRKRPGMYIGSTGERGLHHLIWEVVDNAVDEAMAGFATRVDVKIHADGSVEVRDDGRGIPVEMHATGMPTIDVVMTQLHAGGKFDGETYAVSGGLHGVGVSVVNALSTRLEATVLRDGYEWFQYYDRSVPGKLKQGGETKETGTTIRFWADPEIFETTDYNFETVARRLQEMAFLNKGLTIELTDERVTAEEVVDDVVKDTAEAPKTADEKAAEATGPSKVKHRVFHYPGGLVDYVKHINRTKTPIQQSIIDFDGKGPGHEVEIAMQWNAGYSESVHTFANTINTHEGGTHEEGFRAALTSVVNRYAKDKKLLKDKDPNLTGDDIREGLAAVISVKVAEPQFEGQTKTKLGNTEVKSFVQKICNEQLQHWFEANPAEAKTVVNKAVSSAQARIAARKARELV

Key:
MsGyrB47 (D348A) = target: T1, MsGyrB47 (D348A); test: cell-based or functional assay
crystal structure = target: the molecule itself; test: crystal structure

Row | Binder | stimulation of the ATPase activity by MsMfpA, compared with wild-type MsGyrB47 (MsGyrB47 (D348A)) [fold decrease] | stoichiometry N (crystal structure)
1 | B1 | ~2 | 
2 | B2 |  | 2
